This is an account of results in US20220154204A1, “ENHANCING DROUGHT, SALINITY AND COLD TOLERANCE IN PLANTS AND TREES” (The Regents of the University of California, priority 2019, published 2022).

This assay deals with T1, OST1/SnRK2.6 (Arabidopsis thaliana, UniProt Q940H6).
T1 construct: made in house; host or cells: E. coli
T1 sequence (Q940H6 1-362): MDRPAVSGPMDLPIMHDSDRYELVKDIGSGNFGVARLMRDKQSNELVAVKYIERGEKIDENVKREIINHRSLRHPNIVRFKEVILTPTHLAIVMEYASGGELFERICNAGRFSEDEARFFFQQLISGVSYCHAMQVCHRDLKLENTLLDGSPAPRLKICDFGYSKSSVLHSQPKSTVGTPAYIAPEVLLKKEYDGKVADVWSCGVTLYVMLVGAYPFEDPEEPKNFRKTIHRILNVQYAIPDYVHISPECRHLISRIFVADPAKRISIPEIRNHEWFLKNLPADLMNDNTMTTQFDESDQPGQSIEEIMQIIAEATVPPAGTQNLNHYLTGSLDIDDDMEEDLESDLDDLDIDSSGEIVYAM
The assay is described as follows: In vitro phosphorylation assay of CIAP-dephosphorylated GST-OST1/SnRK2.6 with other protein kinases. It is filed as biochemical. Conditions: GST-OST1/SnRK2.6 dephosphorylated by CIAP, [γ-32P]-ATP. The method, then: We investigated phosphorylation of purified recombinant GST-tagged OST1/SnRK2.6 protein kinase after dephosphorylation in vitro. To test whether OST1/SnRK2.6 could be re-activated by autophosphorylation, after dephosphorylation, the GST-OST1/SnRK2.6 protein bound on glutathione sepharose 4B resin was incubated with calf intestinal alkaline phosphatase (CIAP), and [γ-^32P]-ATP was added to the reaction after wash out of CIAP. […] Therefore, another unknown protein kinase may be required for reversible ABA signal transduction.
10 μg GST-OST1/SnRK2.6 proteins were bound to glutathione sepharose 4B beads and incubated with 30 U CIAP for 2 hr at room temperature. […]
a, Seeds of amiR-HsMYO wild-type (control line) or amiR-ax1117 mutant were sowed on ½ MS medium containing 2 μM ABA, or 0.02% EtOH as control, for germination assays. Representative images showing seed germination after 6 days. b, The percentage of seedlings showing green cotyledons was analyzed. […] In-gel kinase assays were performed using histone type III-S as a substrate. e, SnRK2 band intensities as shown in (d) were measured using ImageJ, n=3 experiments, error bars show +/−s.e.m. f, Recombinant GST-OST1/SnRK2.6 protein was dephosphorylated by alkaline phosphatase in vitro and used for in vitro phosphorylation assays after incubation with CPK6, CPK23 or MPK12 protein kinases. […]

B1: CPKδ: calcium-dependent protein kinase of ABA signalling (protein, UniProt Q38872 2-544, looked up)
Calcium-dependent protein …: GNSCRGSFKDKIYEGNHSRPEENSKSTTTTVSSVHSPTTDQDFSKQNTNPALVIPVKEPIMRRNVDNQSYYVLGHKTPNIRDLYTLSRKLGQGQFGTTYLCTDIATGVDYACKSISKRKLISKEDVEDVRREIQIMHHLAGHKNIVTIKGAYEDPLYVHIVMELCAGGELFDRIIHRGHYSERKAAELTKIIVGVVEACHSLGVMHRDLKPENFLLVNKDDDFSLKAIDFGLSVFFKPGQIFKDVVGSPYYVAPEVLLKHYGPEADVWTAGVILYILLSGVPPFWAETQQGIFDAVLKGYIDFDTDPWPVISDSAKDLIRKMLCSSPSERLTAHEVLRHPWICENGVAPDRALDPAVLSRLKQFSAMNKLKKMALKVIAESLSEEEIAGLRAMFEAMDTDNSGAITFDELKAGLRRYGSTLKDTEIRDLMEAADVDNSGTIDYSEFIAATIHLNKLEREEHLVSAFQYFDKDGSGYITIDELQQSCIEHGMTDVFLEDIIKEVDQDNDGRIDYEEFVAMMQKGNAGVGRRTMKNSLNISMRDV
For the molecule B1, the “phosphorylation of OST1/SnRK2.6 after dephosphorylation” value was “did not phosphorylate”.

B2: MPK12: MAP kinase of ABA signalling (protein)
chain: MSGESSSGSTEHCIKVVPTHGGRYVQYNVYGQLFEVSRKYVPPIRPIGRGACGIVCAAVNSVTGEKVAIKKIGNAFDNIIDAKRTLREIKLLRHMDHENVITIKDIVRPPQRDIFNDVYIVYELMDTDLQRILRSNQTLTSDQCRFLVYQLLRGLKYVHSANILHRDLRPSNVLLNSKNELKIGDFGLARTTSDTDFMTEYVVTRWYRAPELLLNCSEYTAAIDIWSVGCILGEIMTGQPLFPGKDYVHQLRLITELVGSPDNSSLGFLRSDNARRYVRQLPRYPKQQFAARFPKMPTTAIDLLERMLVFDPNRRISVDEALGHAYLSPHHDVAKEPVCSTPFSFDFEHPSCTEEHIKELIYKESVKFNPDH
For the molecule B2, the “phosphorylation of OST1/SnRK2.6 after dephosphorylation” value is recorded as “did not phosphorylate”.
